Data on five proteins can be found in US20120190834A1.

The target of series [1] is TFPI (source not stated; Examples 8, 12 and 45), P10646.
Series [2] concerns the target recombinant human TFPI purified from a cell line from Novo Nordisk.

TFPI (source not stated; Examples 8, 12 and 45), P10646, sequence (P10646 whole entry, looked up): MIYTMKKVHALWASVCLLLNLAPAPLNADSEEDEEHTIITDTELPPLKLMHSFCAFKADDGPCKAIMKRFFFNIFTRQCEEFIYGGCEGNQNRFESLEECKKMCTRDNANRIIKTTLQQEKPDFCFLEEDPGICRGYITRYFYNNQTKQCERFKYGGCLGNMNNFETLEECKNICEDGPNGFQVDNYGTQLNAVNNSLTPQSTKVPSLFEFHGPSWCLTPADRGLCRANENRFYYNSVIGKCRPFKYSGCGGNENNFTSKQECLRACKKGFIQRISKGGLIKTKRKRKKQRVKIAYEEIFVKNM

B1: tissue factor:Factor VIIa complex (sources not stated; Examples 8 and 12) (protein)
chain 1: SGTTNTVAAYNLTWKSTNFKTILEWEPKPVNQVYTVQISTKSGDWKSKCFYTTDTECDLTDEIVKDVKQTYLARVFSYPAGNVESTGSAGEPLYENSPEFTPYLETNLGQPTIQSFEQVGTKVNVTVEDERTLVRRNNTFLSLRDVFGKDLIYTLYYWKSSSSGKKTAKTNTNEFLIDVDKGENYCFSVQAVIPSRTVNRKSTDSPVECMGQEKGEFREIFYIIGAVVFVVIILVIILAISLHKCRKAGVGQSWKENSPLNVS
chain 2: ANAFLEELRPGSLERECKEEQCSFEEAREIFKDAERTKLFWISYSDGDQCASSPCQNGGSCKDQLQSYICFCLPAFEGRNCETHKDDQLICVNENGGCEQYCSDHTGTKRSCRCHEGYSLLADGVSCTPTVEYPCGKIPILEKRNASKPQGR
chain 3: IVGGKVCPKGECPWQVLLLVNGAQLCGGTLINTIWVVSAAHCFDKIKNWRNLIAVLGEHDLSEHDGDEQSRRVAQVIIPSTYVPGTTNHDIALLRLHQPVVLTDHVVPLCLPERTFSERTLAFVRFSLVSGWGQLLDRGATALELMVLNVPRLMTQDCLQQSRKVGDSPNITEYMFCAGYSDGSKDSCKGDSGGPHATHYRGTWYLTGIVSWGQGCATVGHFGVYTRVSQYIEWLQKLMRSEPRPGVLLRAPFP
In the case of B1, in series [1], the “TF:FVIIa activity, hydrolysis of fluorogenic substrate SN-17c; 8 nM TFPI” value is on record as “TFPI inhibited approximately 50% of TF:FVIIa activity under these conditions” and the “rate of FXa generation in the extrinsic tenase (Xase) assay (chromogenic FXa substrate, A405), normalised at 4 minutes; 1 nM TFPI” value is reported as “TFPI reduced the rate of FXa generation at 4 minutes by nearly 70%”.

B2: extrinsic Xase complex: re-lipidated recombinant human tissue factor (Innovin) and factor VIIa (Enzyme Research Laboratories) (protein)
chain 1: B1 chain 1
chain 2: B1 chain 2
chain 3: B1 chain 3
Turning to B2, in series [2], the “FXa generation by the extrinsic Xase (chromogenic FXa substrate); 2 nM TFPI” value was “curve #6 shows that TFPI shuts down Xa generation in the absence of ARC19499”.

B3: Factor Xa (source not stated; Example 45) (protein)
chain 1: ANSFLEEMKKGHLERECMEETCSYEEAREVFEDSDKTNEFWNKYKDGDQCETSPCQNQGKCKDGLGEYTCTCLEGFEGKNCELFTRKLCSLDNGDCDQFCHEEQNSVVCSCARGYTLADNGKACIPTGPYPCGKQTLER
chain 2: IVGGQECKDGECPWQALLINEENEGFCGGTILSEFYILTAAHCLYQAKRFKVRVGDRNTEQEEGGEAVHEVEVVIKHNRFTKETYDFDIAVLRLKTPITFRMNVAPACLPERDWAESTLMTQKTGIVSGFGRTHEKGRQSTRLKMLEVPYVDRNSCKLSSSFIITQNMFCAGYDTKQEDACQGDSGGPHVTRFKDTYFVTGIVSWGEGCARKGKYGIYTKVTAFLKWIDRSMKTRGLPKAKSHAPEVITSSPLK
For the protein B3, in series [1], the “FXa (1 nM) cleavage of chromogenic substrate S-2765, substrate added last” value is “In the presence of ≧8 nM TFPI, inhibition is nearly complete under these conditions and little product is formed”.

B4: Factor Xa (Enzyme Research Laboratories) (protein)
chain 1: B3 chain 1
chain 2: B3 chain 2
Turning to B4, in series [2], the “FXa (0.2 nM) cleavage of chromogenic substrate Pefachrome FXa 5523; 2 nM TFPI” value was “When TFPI and the chromogenic substrate were added to FXa at the same time, the rate of substrate cleavage decreased gradually as FXa was inhibited by TFPI”.

B5: prothrombinase complex: factor Xa (Enzyme Research Laboratories) and factor Va (Haematologic Technologies) on phospholipid membrane (protein)
chain 1: B3 chain 1
chain 2: B3 chain 2
chain 3: AQLRQFYVAAQGISWSYRPEPTNSSLNLSVTSFKKIVYREYEPYFKKEKPQSTISGLLGPTLYAEVGDIIKVHFKNKADKPLSIHPQGIRYSKLSEGASYLDHTFPAEKMDDAVAPGREYTYEWSISEDSGPTHDDPPCLTHIYYSHENLIEDFNSGLIGPLLICKKGTLTEGGTQKTFDKQIVLLFAVFDESKSWSQSSSLMYTVNGYVNGTMPDITVCAHDHISWHLLGMSSGPELFSIHFNGQVLEQNHHKVSAITLVSATSTTANMTVGPEGKWIISSLTPKHLQAGMQAYIDIKNCPKKTRNLKKITREQRRHMKRWEYFIAAEEVIWDYAPVIPANMDKKYRSQHLDNFSNQIGKHYKKVMYTQYEDESFTKHTVNPNMKEDGILGPIIRAQVRDTLKIVFKNMASRPYSIYPHGVTFSPYEDEVNSSFTSGRNNTMIRAVQPGETYTYKWNILEFDEPTENDAQCLTRPYYSDVDIMRDIASGLIGLLLICKSRSLDRRGIQRAADIEQQAVFAVFDENKSWYLEDNINKFCENPDEVKRDDPKFYESNIMSTINGYVPESITTLGFCFDDTVQWHFCSVGTQNEILTIHFTGHSFIYGKRHEDTLTLFPMRGESVTVTMDNVGTWMLTSMNSSPRSKKLRLKFRDVKCIPDDDEDSYEIFEPPESTVMATRKMHDRLEPEDEESDADYDYQNRLAAALGIR
chain 4: SNNGNRRNYYIAAEEISWDYSEFVQRETDIEDSDDIPEDTTYKKVVFRKYLDSTFTKRDPRGEYEEHLGILGPIIRAEVDDVIQVRFKNLASRPYSLHAHGLSYEKSSEGKTYEDDSPEWFKEDNAVQPNSSYTYVWHATERSGPESPGSACRAWAYYSAVNPEKDIHSGLIGPLLICQKGILHKDSNMPMDMREFVLLFMTFDEKKSWYYEKKSRSSWRLTSSEMKKSHEFHAINGMIYSLPGLKMYEQEWVRLHLLNIGGSQDIHVVHFHGQTLLENGNKQHQLGVWPLLPGSFKTLEMKASKPGWWLLNTEVGENQRAGMQTPFLIMDRDCRMPMGLSTGIISDSQIKASEFLGYWEPRLARLNNGGSYNAWSVEKLAAEFASKPWIQVDMQKEVIITGIQTQGAKHYLKSCYTTEFYVAYSSNQINWQIFKGNSTRNVMYFNGNSDASTIKENQFDPPIVARYIRISPTRAYNRPTLRLELQGCEVNGCSTPLGMENGKIENKQITASSFKKSWWGDYWEPFRARLNAQGRVNAWQAKANNNKQWLEIDLLKIKKITAIITQGCKSLSSEMYVKSYTIHYSEQGVEWKPYRLKSSMVDKIFEGNTNTKGHVKNFFNPPIISRFIRVIPKTWNQSIALRLELFGCDIY
For B5, in series [2], the prothrombinase activity (thrombin generation from prothrombin, chromogenic thrombin substrate); 1 nM TFPI (fraction of activity) was found to be 0.33.
